From PMC3684718, “Novel CAD-like enzymes from Escherichia coli K-12 as additional tools in chemical production” (Applied Microbiology and Biotechnology, 2012)

Tests used:
purified protein [1] = substrate: CCCCCC=O; test: purified protein; conditions: NADPH 0.3 mM, 50 mM Tris-HCl pH 7.5, 37 °C
purified protein [2] = substrate: CCCCO; test: purified protein; assay type: biochemical, Escherichia coli; conditions: NADP+, 50 mM Tris-HCl pH 8.5, 37 °C, pH 8.5
purified protein [3] = substrate: O=Cc1ccco1; test: purified protein; assay type: biochemical, Escherichia coli; conditions: NADPH 0.3 mM, 50 mM Tris-HCl pH 7.5, 37 °C, pH 7.5
purified protein [4] = substrate: NC(=O)C1=CN([C@@H]2O[C@H](COP(=O)(O)OP(=O)(O)OC[C@H]3O[C@@H](n4cnc5c(N)ncnc54)[C@H](OP(=O)(O)O)[C@@H]3O)[C@@H](O)[C@H]2O)C=CC1; test: purified protein; assay type: biochemical, Escherichia coli; conditions: butyraldehyde, 50 mM Tris-HCl pH 7.5, 37 °C, pH 7.5, varied: cofactor
purified protein [5] = substrate: C/C=C/C=O; test: purified protein; assay type: biochemical, Escherichia coli; conditions: NADPH 0.3 mM, 50 mM Tris-HCl pH 7.5, 37 °C, pH 7.5
purified protein [6] = substrate: O=Cc1ccccc1; test: purified protein; assay type: biochemical, Escherichia coli; conditions: NADPH 0.3 mM, 50 mM Tris-HCl pH 7.5, 37 °C, pH 7.5
purified protein [7] = substrate: CCCC=O; test: purified protein; assay type: biochemical, Escherichia coli; conditions: NADPH 0.3 mM, 50 mM Tris-HCl pH 7.5, 37 °C, pH 7.5
purified protein [8] = substrate: O=CCCCC=O; test: purified protein; assay type: biochemical, Escherichia coli; conditions: NADPH 0.3 mM, 50 mM Tris-HCl pH 7.5, 37 °C, pH 7.5
purified protein [9] = substrate: CCC=O; test: purified protein; assay type: biochemical, Escherichia coli; conditions: NADPH 0.3 mM, 50 mM Tris-HCl pH 7.5, 37 °C, pH 7.5
purified protein [10] = substrate: NC(=O)c1ccc[n+]([C@@H]2O[C@H](COP(=O)(O)OP(=O)(O)OC[C@H]3O[C@@H](n4cnc5c(N)ncnc54)[C@H](OP(=O)(O)O)[C@@H]3O)[C@@H](O)[C@H]2O)c1; test: purified protein; assay type: biochemical, Escherichia coli; conditions: butanol, 50 mM Tris-HCl pH 8.5, 37 °C, pH 8.5, varied: cofactor
[11] = substrate: CC=O; test: purified protein, by the assay type; design: NADPH/NADP+ absorbance at 340 nm, purified His-tagged enzyme, Michaelis-Menten fit; pH 7.5 reduction, pH 8.5 oxidation, 37 °C
Procedure: (§1) The ADH activity was determined photometrically by monitoring the increase/decrease of NADP^+/NADPH at 340 nm in a Mulitskan® spectrum spectrophotometer (Thermo Fisher Scientific). The reaction mixture contained 50 mM Tris-HCl, pH 7.5, 0.3 mM NAD(P)H a defined aldehyde as substrate, and the purified enzyme at 37 °C. One unit of enzyme activity was defined as the amount of protein that oxidizes 1 μmol of NAD(P)H/min at 37 °C. Calculation of Michaelis–Menten kinetics for determination of K m and V max was done with SigmaPlot 11.0 (Systat Software). Alcohols with alkyl chains longer than C6 were not tested as substrates due to solubility problems. For the characterization of recombinant YahK and YjgB, enzyme activity was assayed for the reduction of carbonyl compounds and the oxidation of alcohols. For the reduction of carbonyl compounds, the assays were conducted at pH 7.5, 50 mM Tris-HCl, and 37 °C. The oxidation of alcohols was assayed with a slightly higher pH of 8.5, 50 mM Tris-HCl, and 37 °C. […] The decrease of NADPH at 340 nm was determined using a Shimadzu UV-1800 UV-spectrophotometer (Duisburg, Germany) Protein expression is exemplarily described for one enzyme and was performed for other proteins by the same procedure. E. coli BL21(DE3) containing the plasmid of interest was grown in 50 ml autoinduction media for efficient protein expression (Studier [2005]). In the case of YjgB, YahK, and YqhD, additional ZnCl2 was added to the media with a final concentration of 0.1 mM. The preculture was incubated in 4 ml of LB medium with 100 μg/ml kanamycin at 37 °C overnight on a rotary shaker (180 rpm). Expression culture was inoculated with a 1:100 dilution of overnight culture. Incubation was performed foremost 3 h at 37 °C followed by incubation for 21 h at 16 °C. Cells were harvested by centrifugation and resuspended in 50 mM sodium phosphate buffer (pH 8.0, 20 mM imidazol, 500 mM NaCl, and 10 % glycerol). Crude extracts were prepared by use of a cell disrupter (IUL Instruments) and subsequent addition of MgCl2 to a final concentration of 2.5 mM in combination with DNase (1 μg/ml) and a following incubation for 20 min at room temperature for DNA degradation. The insoluble fraction of the lysate was removed by centrifugation at 20,000 rpm for 40 min at 4 °C. The supernatant was filtered through a 0.45-μm syringe filter and applied to an affinity resin column, 5 ml HisTrap^TM FF, equilibrated with the resuspension buffer using the ÄKTA UPC-900 FPLC-system. The enzyme was washed with 20 ml of resuspension buffer and eluted with 50 mM sodium phosphate buffer (pH 8.0, 500 mM imidazol, 500 mM NaCl, and 10 % glycerol). Aliquots of each eluted fraction were subjected to 12 % SDS-PAGE. The fractions containing the eluted protein were pooled and the protein was desalted using a HiPrep^TM 26/10 Desalting column which preliminary equilibrated with 50 mM Tris-HCl, pH 8.0. Protein concentrations were determined using a Bradford assay Roti®-nanoquant (Carl Roth).

[12] = substrate: OCCCCO; test: purified protein, by the assay type; design: NADPH/NADP+ absorbance at 340 nm, purified His-tagged enzyme, Michaelis-Menten fit; pH 7.5 reduction, pH 8.5 oxidation, 37 °C
Procedure: as §1

[13] = substrate: CC(C)C=O; test: purified protein, by the assay type; design: NADPH/NADP+ absorbance at 340 nm, purified His-tagged enzyme, Michaelis-Menten fit; pH 7.5 reduction, pH 8.5 oxidation, 37 °C
Procedure: as §1

purified protein [14] = substrate: O=C[C@H](O)CO; test: purified protein; conditions: NADPH 0.3 mM, 50 mM Tris-HCl pH 7.5, 37 °C
purified protein [15] = substrate: CC(C)C=O; test: purified protein; conditions: NADPH 0.3 mM, 50 mM Tris-HCl pH 7.5, 37 °C
[16] = substrate: CCC=O; test: purified protein, by the assay type; design: NADPH/NADP+ absorbance at 340 nm, purified His-tagged enzyme, Michaelis-Menten fit; pH 7.5 reduction, pH 8.5 oxidation, 37 °C
Procedure: as §1

| Protein | Km (purified protein [1]) [mM] | kcat (purified protein [1]) [s⁻¹] | kcat/Km (purified protein [1]) [M⁻¹ s⁻¹] | Km (purified protein [3]) [mM] | kcat (purified protein [3]) [s⁻¹] | kcat/Km (purified protein [3]) [M⁻¹ s⁻¹] | Km (purified protein [4]) [mM] | kcat (purified protein [4]) [s⁻¹] | kcat/Km (purified protein [4]) [M⁻¹ s⁻¹] | Km (purified protein [5]) [mM] | kcat (purified protein [5]) [s⁻¹] | kcat/Km (purified protein [5]) [M⁻¹ s⁻¹] | Km (purified protein [6]) [mM] | kcat (purified protein [6]) [s⁻¹] | kcat/Km (purified protein [6]) [M⁻¹ s⁻¹] | Km (purified protein [7]) [mM] | kcat (purified protein [7]) [s⁻¹] | kcat/Km (purified protein [7]) [M⁻¹ s⁻¹] | Km (purified protein [8]) [mM] | kcat (purified protein [8]) [s⁻¹] | other results |
| --- | --- | --- | --- | --- | --- | --- | --- | --- | --- | --- | --- | --- | --- | --- | --- | --- | --- | --- | --- | --- | --- |
| YjgB (Escherichia coli K-12) (protein, expressed in E. coli BL21(DE3) with ZnCl2) MSMIKSYAAKEAGGELEVYEYDPGELRPQDVEVQVDYCGICHSDLSMIDNEWGFSQYPLVAGHEVIGRVVALGSAAQDKGLQVGQRVGIGWTARSCGHCDACISGNQINCEQGAVPTIMNRGGFAEKLRADWQWVIPLPENIDIESAGPLLCGGITVFKPLLMHHITATSRVGVIGIGGLGHIAIKLLHAMGCEVTAFSSNPAKEQEVLAMGADKVVNSRDPQALKALAGQFDLIINTVNVSLDWQPYFEALTYGGNFHTVGAVLTPLSVPAFTLIAGDRSVSGSATGTPYELRKLMRFAARSKVAPTTELFPMSKINDAIQHVRDGKARYRVVLKADF | 0.34 ± 0.03 | 419 | 1.23e+06 | 0.22 ± 0.02 | 224 ± 26.9 | 1.02e+06 | 0.06 ± 0.003 | 224 ± 36.5 | 3.73e+06 | 2.4 ± 0.2 | 77.6 ± 3.3 | 32300 | 0.24 ± 0.02 | 313 ± 7.4 | 1.3e+06 | 2.1 ± 0.09 | 464 ± 24.2 | 221000 | 5.8 ± 0.5 | 312 ± 14.8 | Km (purified protein [2]): 3.5 ± 0.28 mM; kcat (purified protein [2]): 13.8 ± 0.6 s⁻¹; kcat/Km (purified protein [2]): 3940 M⁻¹ s⁻¹; kcat/Km (purified protein [8]): 53800 M⁻¹ s⁻¹; Km (purified protein [9]): 19.6 ± 0.8 mM; kcat (purified protein [9]): 207 ± 2.9 s⁻¹; kcat/Km (purified protein [9]): 10600 M⁻¹ s⁻¹; Km (purified protein [10]): 0.076 ± 0.01 mM; kcat (purified protein [10]): 14.4 ± 0.2 s⁻¹; kcat/Km (purified protein [10]): 189000 M⁻¹ s⁻¹; Km [11]: 73.4 ± 5.4 mM; kcat [11]: 333 ± 26.1 s⁻¹; kcat/Km [11]: 4500 M⁻¹ s⁻¹; Km [12]: 24.1 ± 1.5 mM; kcat [12]: 12.9 ± 0.4 s⁻¹; kcat/Km [12]: 530 M⁻¹ s⁻¹; Km [13]: 193.7 ± 27.5 mM; kcat [13]: 50.8 ± 9.4 s⁻¹; kcat/Km [13]: 260 M⁻¹ s⁻¹ |
| YahK (Escherichia coli K-12) (protein, expressed in E. coli BL21(DE3) with ZnCl2) MKIKAVGAYSAKQPLEPMDITRREPGPNDVKIEIAYCGVCHSDLHQVRSEWAGTVYPCVPGHEIVGRVVAVGDQVEKYAPGDLVGVGCIVDSCKHCEECEDGLENYCDHMTGTYNSPTPDEPGHTLGGYSQQIVVHERYVLRIRHPQEQLAAVAPLLCAGITTYSPLRHWQAGPGKKVGVVGIGGLGHMGIKLAHAMGAHVVAFTTSEAKREAAKALGADEVVNSRNADEMAAHLKSFDFILNTVAAPHNLDDFTTLLKRDGTMTLVGAPATPHKSPEVFNLIMKRRAIAGSMIGGIPETQEMLDFCAEHGIVADIEMIRADQINEAYERMLRGDVKYRFVIDNRTLTD | 0.37 ± 0.02 | 18.3 | 49500 | 0.135 ± 0.03 | 12.5 ± 1.9 | 92300 | 0.011 ± 0.001 | 9.8 ± 0.4 | 894000 | 3.6 ± 0.4 | 32.6 ± 2.1 | 9100 | 0.29 ± 0.02 | 7.75 ± 0.5 | 26700 | 2.1 ± 0.1 | 41.6 ± 0.6 | 19800 | 4.1 ± 0.4 | 13.4 ± 1.5 | Km (purified protein [14]): 4.4 ± 0.4 mM; kcat (purified protein [14]): 12.3 s⁻¹; kcat/Km (purified protein [14]): 2800 M⁻¹ s⁻¹; Km (purified protein [15]): 2.2 ± 0.2 mM; kcat (purified protein [15]): 32.1 s⁻¹; kcat/Km (purified protein [15]): 14600 M⁻¹ s⁻¹; kcat/Km (purified protein [8]): 3300 M⁻¹ s⁻¹; Km (purified protein [10]): 0.012 ± 0.001 mM; kcat (purified protein [10]): 7.47 ± 0.07 s⁻¹; kcat/Km (purified protein [10]): 622000 M⁻¹ s⁻¹; Km [11]: 13.3 ± 1.0 mM; kcat [11]: 11.2 ± 0.7 s⁻¹; kcat/Km [11]: 840 M⁻¹ s⁻¹; Km [12]: 38.5 ± 2.9 mM; kcat [12]: 6.7 ± 0.3 s⁻¹; kcat/Km [12]: 180 M⁻¹ s⁻¹; Km [16]: 10.9 ± 1.0 mM; kcat [16]: 11.6 ± 0.6 s⁻¹; kcat/Km [16]: 1100 M⁻¹ s⁻¹ |
